According to US20070014720A1 (published 2007):

T1: human CD20 (human, UniProt P11836 1-297)
T1 construct: whole, on cells; In all assays CD20 stood on cells; also called CD20 antigen
T1 sequence (looked up): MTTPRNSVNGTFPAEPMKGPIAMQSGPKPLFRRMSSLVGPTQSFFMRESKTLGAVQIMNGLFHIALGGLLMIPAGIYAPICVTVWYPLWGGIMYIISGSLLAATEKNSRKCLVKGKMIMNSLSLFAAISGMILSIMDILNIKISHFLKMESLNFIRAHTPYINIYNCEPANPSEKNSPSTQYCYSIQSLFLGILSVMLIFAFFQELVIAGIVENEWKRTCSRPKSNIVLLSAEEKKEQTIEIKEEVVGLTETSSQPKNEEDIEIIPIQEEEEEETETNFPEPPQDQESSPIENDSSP


What was measured:
[1] = molecular target: T1, human CD20; assay: FACS KD on SB cells expressing CD20 (GMF against mAb concentration, nonlinear fit)
Method: The affinity of purified antibodies against CD20 (mAbs 1.1.2, 1.2.1, 2.1.2, 1.3.3, 1.5.3, 1.10.3.1, 1.13.2), Rituximab (positive control), and B1 was determined by FACS. Briefly, SB cells expressing CD20 were resuspended in FACS buffer (2% FBS, 0.05% NaN₃) at a concentration of approximately 5 million cells/mL. HSB cells were also resuspended in FACS buffer at a concentration of approximately 9 million cells/mL. Cells were kept on ice. Purified antibodies were serially diluted in filtered 1×PBS (2×) across 11 wells in 96-well plates. The twelfth well in each row contained buffer only. 1×PBS and cells were added to each mAb well such that the final volume was […] and each well contained approximately 375,000 cells. The final molecular concentration ranges for the mAbs were as follows:
Plates were placed on a plate shaker for 3 hours at 4° C., then spun and washed 3× with PBS. 200 μL of 145 nM Cy5 goat α-human polyclonal antibody was added to each well, and 200 μL of 192 nM Cy5 goat α-mouse polyclonal antibody was added to the cells complexed with B1 antibody. Plates were then incubated for 40 minutes at 4° C., then spun and washed 3× with PBS.
The Geometric Mean Fluorescence (GMF) of 10,000 cells for each mAb concentration was determined using a FACSCalibur instrument. No significant nonspecific binding (no significant signal) was apparent from the HSB cells. In each row containing the SB cells, the signal from the twelfth well (containing buffer only) was subtracted from the signal from the first 11 wells. A nonlinear plot of GMF as a function of molecular mAb concentration was fit using Scientist software using the equation: […]

[2] = molecular target: T1, human CD20; assay: cell-based or functional assay

Row | Binder | Kd [1] [nM] | % Lysis Daudi 0.001 µg/ml ADCC [2] [%] | % Lysis Daudi 1 µg/ml ADCC [2] [%] | % Lysis Raji 0.001 µg/ml ADCC [2] [%] | % Lysis Raji 1 µg/ml ADCC [2] [%] | % Lysis Ramos 0.001 µg/ml ADCC [2] [%] | % Lysis Ramos 1 µg/ml ADCC [2] [%] | EC50 µg/ml Daudi CDC [2] [µg/mL] | EC50 µg/ml Raji CDC [2] [µg/mL] | EC50 µg/ml Ramos Apoptosis Alamar Blue [2] [µg/mL] | EC50 µg/ml Ramos Apoptosis Annexin V [2] [µg/mL] | EC50 µg/ml Ramos Apoptosis Cell Titer Glo [2] [µg/mL] | EC50 µg/ml Ramos Apoptosis WST-1 [2] [µg/mL] | EC50 µg/ml Ramos CDC [2] [µg/mL]
1 | mAb 1.10.3.1 (antibody, human IgG1, V domains shown, Human IgG1 kappa; also called 50-001H1_10_3_1) VH: EVQLVQSGAEVKKPGESLKISCKGSGYSFTSYWIGWVRQMPGKGLEWMGIIYPGDSDTRYSPSFQGQVTISADKSISTAYLQWSSLKASDTAMYYCARMGDFWSGYYTRGMDVWGQGTTVTVSS VL: EIVMTQSPATLSVSPGERATLSCRASQSVSSNLAWYQQKPGQAPRLLISGASTRATGIPARFSGSGSGTEFTLTISSLQSEDFAVYYCHQYNDWSLTFGGGTKVEIK | 11.2 | – | – | – | – | – | – | – | – | – | – | – | – | –
2 | mAb 2.1.2 (ATCC Accession Number PTA-7328) (antibody, human IgG1, V domains shown, Human IgG1 kappa; also called 2.1.1; 50-001H2_1_1) VH: EVQLVQSGAEVKKPGESLKISCKGSGYSFTSYWIGWVRQMPGKGLEWMGIIYPGDSDTRYSPSFQGQVTISADKSISTAYLQWSSLKASDTAMYYCARQGDFWSGYGGMDVWGQGTTVTVSS VL: DIVMTQTPHSSPVTLGQPASISCRSSQSLVSRDGNTYLSWLQQRPGQPPRLLIYKISNRFSGVPNRFSGSGAGTDFTLKISRVKAEDVGVYYCMQATQFPLTFGQGTRLEIK | 3.8 | 52 | 70 | 7 | 17 | 8 | 23 | 0.51 | 0.3 | 0.0329 | 0.163 | 0.0135 | 0.0067 | 0.16
3 | mAb 1.9.2 (antibody, human IgG1, V domains shown) VH: EVQLVQSGAEVKKPGESLKISCKGSGYSFTSYWIGWVRQMPGKGLEWMGIIYPGDSDTRYSPSFQGQVTISADKSISTAYLQWSSLKASDTAMYYCARHGDFWSGYYSFDYWGQGTLVTVSS VL: not shown | – | 19 | 74 | 5 | 17 | 3 | 40 | > 10 | 52.9 | – | – | 0.528 | – | > 10
4 | mAb 1.1.2 (ATCC Accession Number PTA-7329) (antibody, human IgG1, V domains shown, also called 50-001H1_1_2) VH: EVQLVQSGAEVKKPGESLKISCKGSGYSFTSYWIGWVRQMPGKGLEWMGIIYPGDSDTRYRPSFQGQVTISADKSITTAYLQWSSLKASDTAMYYCARHPSYGSGSPNFDYWGQGTLVTVSS VL: not shown | 11.1 | 77 | 96 | 12 | 53 | 15 | 84 | 0.8 | 0.4 | 0.0481 | 0.518 | 0.041 | 0.0055 | 0.24
5 | mAb 1.5.3 (ATCC Accession Number PTA-7330) (antibody, human IgG1, V domains shown, Fully human IgG1 kappa; also called 50-001H1_5_3) VH: EVQLVQSGAEVKKPGESLKISCKGSGYSFTSYWIGWVRQMPGKGLEWMGIIYPGDSDTRYSPSFQGQVTISADKSITTAYLQWSSLKASDTAMYYCARHPSYGSGSPNFDYWGQGTLVTVSS VL: not shown | 9.1 | 66 | 79 | 10 | 53 | 8 | 60 | ~10 | 0.53 | 0.08 | 1.03 | 0.191 | 0.037 | 2.56
6 | mAb 1.13.2 (antibody, human IgG1, V domains shown, Human IgG1 kappa; also called 1.13.1; 50-001H1_13_1) VH: EVQLVQSGAEVKKPGESLKISCKGSGYSFTNYWIGWVRQMPGKGLEWMGIIYPGDSDTRYSPSFQGQVTISADKSISTAYLQWSSLKASDTAMYYCARQGDYYHYSGMDVWGQGTTVTVSS VL: DVVMTQSPLSLSVTLGQPASISCRSSQSLVYNDGDTYLNWFQQRPGQSPRLLIYKVSNWDSGVPDRFSGSGSGTDFTLKVSRVEAEDVGVYYCMQGTHWPLTFGGGTKVEIK | 23.6 | 24 | 74 | 5 | 21 | 4 | 33 | ~10 | 3.54 | 0.291 | 2.97 | 1.44 | 0.096 | 6.82
7 | mAb 1.2.1 (antibody, human IgG1, V domains shown, Human IgG1 kappa; also called 1.2.1.1; 50-001H1_2_1_1) VH: EVQLVQSGAEVKKPGESLKISCKGSGYSFTSYWIGWVRQMPGKGLEWMGIIYPGDSDTRYSPSFQGQVTISADKSISTAYLQWSSLKASDTAMYYCARLGDYYNYYGMDVWGQGTTVTVSS VL: DIVMTQTPLSSPVTLGQPASISCRSSQSLVHSDGKTYLSWLQQRPGQPPRLLIYKSSNRFSGVPDRFSGSGAGTDFTLKISRVEAEDVGVYYCVQATQFPITFGQGTRLEIK | 11.9 | 56 | 86 | 8 | 45 | 8 | 67 | > 10 | > 10 | – | – | 15.2 | – | > 10
8 | mAb 1.6.2 (antibody, human IgG1, V domains shown) VH: EVQLVQSGAEVKKPGESLKISCKGSGYSFTSYWIGWVRQMPGKGLEWMGIIYPGDSDTRYSPSFQGQVTISADKSISTAYLQWSSLKASDTAMYYCARHGDYSNIDAFDIWGQGTMVTVSS VL: DVVMTQSPLSLPVTLGQPASISCRSSQSLVYSDGNAYLNWFQQRPGQSPRRLIYKVSNWDSGVPDRFSGSGSGTDFTLKIRRVEAEDVGAYYCMQGIHCTFGPGTKVHIK | – | 77 | 79 | 5 | 36 | 3 | 43 | ~10 | 0.38 | 0.16 | 0.67 | 0.476 | 0.0393 | 0.31
